Columns and labels:
human serum albumin [1] = target: T1, human serum albumin (human, UniProt P02768 25-609); assay: MST
human serum albumin [2] = target: T1, human serum albumin; assay: BLI
human serum albumin [3] = target: T1, human serum albumin; assay: BLI; remark: listed apart in the source

Kd (human serum albumin [1]) | Kd (human serum albumin [2]) | Binder | also measured
146 nM | – | DesAb-HSA-D3, C-terminal cysteine variant labelled with Alexa Fluor 647 (VHH, Alexa Fluor 647 (maleimide) on the free C-terminal cysteine of the Asp-Cys-Glu motif) VHH: EVQLQESGGGLVQAGGSLRLSCAASGELYALISMGWFRQAPGKEREFVAAISRNGDNTYYTDSVKGRFTISRDNAKNTVELQMNSLKPEDTAVYYCAADKFASPDGSVTIMTNEYDYWGQGTQVTVSD | –
– | 308 nM | DesAb-HSA-D3 (VHH) VHH: EVQLQESGGGLVQAGGSLRLSCAASGELYALISMGWFRQAPGKEREFVAAISRNGDNTYYTDSVKGRFTISRDNAKNTVELQMNSLKPEDTAVYYCAADKFASPDGSVTIMTNEYDYWGQGTQVTVSD | –
140 nM | – | DesAb-HSA-P1, C-terminal cysteine variant labelled with Alexa Fluor 647 (VHH, Alexa Fluor 647 (maleimide) on the free C-terminal cysteine of the Asp-Cys-Glu motif) VHH: EVQLEESGGGLVQPGGSLRLSCAASGFNIKDTYIGWVRQAPGKGEEWVASIYPTSGYTRYADSVKGRFTISADTSKNTAYLQMNSLRAEDTAVYYCAAGSIQKSLQTAESILEEFDYWGQGTLVTVSS | –
– | 279 nM | DesAb-HSA-P1 (VHH) VHH: EVQLEESGGGLVQPGGSLRLSCAASGFNIKDTYIGWVRQAPGKGEEWVASIYPTSGYTRYADSVKGRFTISADTSKNTAYLQMNSLRAEDTAVYYCAAGSIQKSLQTAESILEEFDYWGQGTLVTVSS | –
– | – | Nb.B201 (VHH) VHH: QVQLQESGGGLVQAGGSLRLSCAASGYISDAYYMGWYRQAPGKEREFVATITHGTNTYYADSVKGRFTISRDNAKNTVYLQMNSLKPEDTAVYYCAVLETRSYSFRYWGQGTQVTVSS | Kd (human serum albumin [3]): ~370 nM
– | 412 nM | DesAb-HSA-P2 (VHH) VHH: EVQLEESGGGLVQPGGSLRLSCAASGFNIKDTYIGWVRQAPGKGEEWVASIYPTSGYTRYADSVKGRFTISADTSKNTAYLQMNSLRAEDTAVYYCAAGSAQAGNAEEAEEEFDYWGQGTLVTVSS | –
810 nM | – | DesAb-HSA-P2, C-terminal cysteine variant labelled with Alexa Fluor 647 (VHH, Alexa Fluor 647 (maleimide) on the free C-terminal cysteine of the Asp-Cys-Glu motif) VHH: EVQLEESGGGLVQPGGSLRLSCAASGFNIKDTYIGWVRQAPGKGEEWVASIYPTSGYTRYADSVKGRFTISADTSKNTAYLQMNSLRAEDTAVYYCAAGSAQAGNAEEAEEEFDYWGQGTLVTVSS | –

— PMC9651861 (2022)
